# Target: the molecule itself
# Assay: cryo-EM structure; LRRC8A_(BRIL):D complexes co-expressed in Sf9, purified in 20 mM HEPES, 150 mM KCl, 1 mM EDTA, 0.02% GDN, pH 7.4; α-BRIL Fab BAG2 and α-Fab Nb added as fiducials; two conformations resolved by 3D variability analysis, C1 symmetry
protein,measurement,value
"Mus musculus LRRC8D (natural protein, UniProt Q8BGR2 1-859, looked up, the tag was cut off with TEV protease during purification, so a short C-terminal remnant of the linker and the cleavage site is left; Two copies stand in the hexameric channel; also called mmLRRC8D; LRRC8D subunit; source: Sf9 cells, co-expressed with LRRC8A_(BRIL) from one baculovirus; purified in GDN (α-mCherry nanobody resin, α-GFP nanobody resin, Superose 6 Increase); not shown: mCherry, …) MFTLAEVASLNDIQPTYRILKPWWDVFMDYLAVVMLMVAIFAGTMQLTKDQVVCLPVLPSPANSKAHTPPGNADITTEVPRMETATHQDQNGQTTTNDVAFGTSAVTPDIPLQATHPHAESTLPNQEAKKEKRDPTGRKTNLDFQQYVFINQMCYHLALPWYSKYFPYLALIHTIILMVSSNFWFKYPKTCSKVEHFVSILGKCFESPWTTKALSETACEDSEENKQRITGAQTLPKHVSTSSDEGSPSASTPMINKTGFKFSAEKPVIEVPSMTILDKKDGEQAKALFEKVRKFRAHVEDSDLIYKLYVVQTLIKTAKFIFILCYTANFVNAISFEHVCKPKVEHLTGYEVFECTHNMAYMLKKLLISYISIICVYGFICLYTLFWLFRIPLKEYSFEKVREESSFSDIPDVKNDFAFLLHMVDQYDQLYSKRFGVFLSEVSENKLREISLNHEWTFEKLRQHVSRNAQDKQELHLFMLSGVPDAVFDLTDLDVLKLELIPEAKIPAKISQMTNLQELHLCHCPAKVEQTAFSFLRDHLRCLHVKFTDVAEIPAWVYLLKNLRELYLIGNLNSENNKMIGLESLRELRHLKILHVKSNLTKVPSNITDVAPHLTKLVIHNDGTKLLVLNSLKKMMNVAELELQNCELERIPHAIFSLSNLQELDLKSNNIRTIEEIISFQHLKRLTCLKLWHNKIVAIPPSITHVKNLESLYFSNNKLESLPTAVFSLQKLRCLDVSYNNISTIPIEIGLLQNLQHLHITGNKVDILPKQLFKCVKLRTLNLGQNCIASLPEKISQLTQLTQLELKGNCLDRLPAQLGQCRMLKKSGLVVEDQLFDTLPLEVKEALNQDVNVPFANGI",binding result,binds

# — doi:10.1101/2024.11.24.625074, “Assembly and lipid-gating of LRRC8A:D volume-regulated anion channels” (bioRxiv, 2024)
